Results reported in publication PMC12490080, “Natural variation in Arabidopsis thaliana highlights a key role of glyoxalase I;2 in detoxifying glucose-derived reactive carbonyl species” (BMC Plant Biology, 2025).

Key:
[1] = substrate: O=CC=O; assay: purified protein; format: biochemical, Arabidopsis thaliana; conditions: true substrate is the hemithioacetal of GO and GSH (preformed 30 min; HTA concentration calculated with Kdiss 3.0 mM), 1.7 mM GSH, 0.5 mM Mn2+, 100 mM MOPS pH 7.0, 25 °C
[2] = substrate: CC(=O)C=O; assay: purified protein; format: biochemical, Arabidopsis thaliana; conditions: true substrate is the hemithioacetal of MGO and GSH (preformed 30 min; HTA concentration calculated with Kdiss 3.0 mM), 1.7 mM GSH, 0.5 mM Ni2+, 100 mM MOPS pH 7.0, 25 °C

Row | Protein | Km [1] [µM] | kcat [1] [s⁻¹] | kcat/Km [1] [M⁻¹ s⁻¹] | Km [2] [µM] | kcat [2] [s⁻¹] | kcat/Km [2] [M⁻¹ s⁻¹]
1 | GLXI;2 (Col-0 GLXI;2) (Arabidopsis thaliana) (protein, monomer; two domains, active site 2 (His89, Glu137, Gln150, Glu201)) MAEASDLLEWPKKDNRRFLHVVYRVGDLDRTIEFYTEVFGMKLLRKRDIPEEKYSNAFLGFGPETSNFVVELTYNYGVSSYDIGTGFGHFAISTQDVSKLVENVRAKGGNVTREPGPVKGGGSVIAFVKDPDGYTFELIQRGPTPEPFCQVMLRVGDLDRAIKFYEKALGMRLLRKIERPEYKYTIGMMGYAEEYESIVLELTYNYDVTEYTKGNAYAQIAIGTDDVYKSGEVIKIVNQELGGKITREAGPLPGLGTKIVSFLDPDGWKTVLVDNKDFLKELE | 411 ± 18 | 2.8 ± 0.3 | 6800 ± 600 | 297 ± 14 | 7.5 ± 0.9 | 25300 ± 1700
2 | GLXI;2 (Col-0 GLXI;2) (Arabidopsis thaliana; F278I/K229N) (protein, monomer; two domains, active site 2 (His89, Glu137, Gln150, Glu201)) MAEASDLLEWPKKDNRRFLHVVYRVGDLDRTIEFYTEVFGMKLLRKRDIPEEKYSNAFLGFGPETSNFVVELTYNYGVSSYDIGTGFGHFAISTQDVSKLVENVRAKGGNVTREPGPVKGGGSVIAFVKDPDGYTFELIQRGPTPEPFCQVMLRVGDLDRAIKFYEKALGMRLLRKIERPEYKYTIGMMGYAEEYESIVLELTYNYDVTEYTKGNAYAQIAIGTDDVYNSGEVIKIVNQELGGKITREAGPLPGLGTKIVSFLDPDGWKTVLVDNKDILKELE | 407 ± 15 | 2.6 ± 0.3 | 6700 ± 500 | 302 ± 15 | 8.1 ± 1.1 | 25800 ± 2100
3 | GLXI;2 (Col-0 GLXI;2) (Arabidopsis thaliana; K229N) (protein, monomer; two domains, active site 2 (His89, Glu137, Gln150, Glu201)) MAEASDLLEWPKKDNRRFLHVVYRVGDLDRTIEFYTEVFGMKLLRKRDIPEEKYSNAFLGFGPETSNFVVELTYNYGVSSYDIGTGFGHFAISTQDVSKLVENVRAKGGNVTREPGPVKGGGSVIAFVKDPDGYTFELIQRGPTPEPFCQVMLRVGDLDRAIKFYEKALGMRLLRKIERPEYKYTIGMMGYAEEYESIVLELTYNYDVTEYTKGNAYAQIAIGTDDVYNSGEVIKIVNQELGGKITREAGPLPGLGTKIVSFLDPDGWKTVLVDNKDFLKELE | 415 ± 17 | 2.4 ± 0.3 | 6500 ± 500 | 295 ± 23 | 9.1 ± 1.7 | 26400 ± 2200
4 | GLXI;2 (Col-0 GLXI;2) (Arabidopsis thaliana; F278I) (protein, monomer; two domains, active site 2 (His89, Glu137, Gln150, Glu201)) MAEASDLLEWPKKDNRRFLHVVYRVGDLDRTIEFYTEVFGMKLLRKRDIPEEKYSNAFLGFGPETSNFVVELTYNYGVSSYDIGTGFGHFAISTQDVSKLVENVRAKGGNVTREPGPVKGGGSVIAFVKDPDGYTFELIQRGPTPEPFCQVMLRVGDLDRAIKFYEKALGMRLLRKIERPEYKYTIGMMGYAEEYESIVLELTYNYDVTEYTKGNAYAQIAIGTDDVYKSGEVIKIVNQELGGKITREAGPLPGLGTKIVSFLDPDGWKTVLVDNKDILKELE | 403 ± 12 | 2.5 ± 0.4 | 6200 ± 300 | 311 ± 18 | 8.4 ± 1.2 | 27000 ± 2400
